Target: the molecule itself
Assay: native gel or EMSA; NATIVE-PAGE (12% in the methods, 10% in the legend of Fig. 3a) of purified protein loaded without any treatment, 10 ug (Fig. 3a) or 20 ug each of wild type and mutant (Fig. 2a); band at ~115 kDa against ~36 kDa on SDS-PAGE

B1: MSMEG_3955 from Mycobacterium smegmatis, recombinant wild-type protein (enzyme, Mycobacterium smegmatis mc2 155, UniProt A0QZA6 1-334, looked up)
chain: MNTHFPDTETIHAALALAMRAPSIHNSQPWQWRVGERSVHLYADLDRHLTSTDPDSRDLLLSCGAALHHCVIAFAALGWYASVHRLPNPAEPEHLASIELRRQTPTDLDIALAAAIPRRRTDRRHYSAWPVSHSDIAMMGARAARAGVMLRRVESLSRLQDIVAESIARHAADDGYLRELTAWSGKYASTAGVPARSAPKPEPGAPLSSRMFAGAALKQPDTGAGADEGAVVLALGTADDTRMSRLRAGEATSLILLTATAMGLATCPVTEPLEISETRDAVQAEVFGASAFPQMMLRVGWAPVNADPLPPTPRRHVADAVRWLDGSPFEPESE
notes: MSMEG_3955, Mycobacterium smegmatis mc2 155, NADPH-dependent FMN oxidoreductase of the Acg family; gene amplified from genomic DNA with primers from the ATG to the stop codon (~1005 bp amplicon, ~36 kDa protein); tag removal is not described; also called protein MSMEG_3955; homologue of Rv3131; source: E. coli BL21 (DE3), pET-28a, purified (Ni-NTA)
stoichiometry N: 3

Source: publication PMC8605562, “MSMEG_3955 from Mycobacterium smegmatis is a FMN bounded homotrimeric NAD(P)H:Flavin mononucleotide (FMN) oxidoreductase” (BMC Microbiology, 2021)
